In patent publication US20100322948A1, “Bone morphogenetic protein (BMP)-binding domains of proteins of the repulsive guidance molecule (RGM) protein family and functional fragments thereof, and use of same” (ABBOTT GMBH & CO. KG, priority 2007, published 2010):
One block for each molecule: values may come before it.

B3: Recombinant human BMP-4 (ligand, UniProt P12644 293-408, looked up)
chain: SPKHHSQRARKKNKNCRRHSLYVDFSDVGWNDWIVAPPGYQAFYCHGDCPFPLADHLNSTNHAIVQTLVNSVNSSIPKACCVPTELSAISMLYLDEYDKVVLKNYQEMVVEGCGCR
notes: Bought protein; also called hBMP-4
B6: 47-168-Fc (#786) (Fc fusion)
chain: PCKILKCNSEFWSATSGSHAPASDDTPEFCAALRSYALCTRRTARTCRGDLAYHSAVHGIEDLMSQHNCSKDGPTSQPRLRTLPPAGDSQERSDSPEICHYEKSFHKHSATPNYTHCGLFGD
notes: Expressed in HEK293F cells; IgK leader left out; also called fragment 0; not shown: Factor Xa site from the vector; human IgG Fc (hIgG lambda hc 257-Stop)

Legend:
Recombinant human BMP-4 [1] = molecular target: B3; assay: ELISA, 218-284-Fc immobilised, BMP-4 titrated, detection with anti-BMP-4 biotin antibody
Description: (§1) The test was conducted according to test method 4, variant B above, with immobilization of the fusion proteins (1 mg/mL).

Recombinant human BMP-4 [2] = molecular target: B3; assay: ELISA, 266-335-Fc immobilised, BMP-4 titrated, detection with anti-BMP-4 biotin antibody
Description: as §1

47-168-Fc (#786) [3] = molecular target: B6; assay: ELISA, 47-168-Fc immobilised, BMP-4 titrated, detection with anti-BMP-4 biotin antibody
Description: as §1

47-168-Fc (#786) [4] = molecular target: B6; assay: ELISA, 47-168-Fc immobilised, BMP-2 titrated, detection with anti-BMP-2 biotin antibody
Description: as §1

BMP-4 = molecular target: T1, BMP-4 (Homo sapiens, UniProt P12644); assay: In vitro interaction test, variant B: immobilized RGMA-Fc fusion proteins, detection of BMP-4 binding
T1 construct: purchased R&D Systems 314-BM
T1 sequence (P12644 293-408): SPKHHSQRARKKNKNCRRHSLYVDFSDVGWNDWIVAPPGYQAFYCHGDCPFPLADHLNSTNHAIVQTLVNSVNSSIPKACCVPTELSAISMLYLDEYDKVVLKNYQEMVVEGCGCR
Description: (§2) Test Method 4: In Vitro Interaction Test for Determining the Interaction between RGMA and BMP-2 and -4
(§3) The interaction tests were carried out as described below:
(§4) Variant B: Immobilization of Various RGMA-Fc Fusion Proteins and Detection of the Binding of the BMP-2/ or -4 Protein
(§5) Immunoplate Cert. MaxiSorp F96 (Nunc, 439454)
(§6) RGMA-Fc fragments • Volume used: 2.5 μg/mL in Na2CO3; addition: 50 μL per well • 1 hour at 37° C. in damp chamber
(§7) 3. Washing step: • Wash 3× with PBS/0.02% Tween 20
(§8) 4. Blocking: • 3% BSA in PBS/0.02% Tween, 1 hour at 37° C. in damp chamber • Addition : 200 μL per well, incubation: 1 hour at 37° C. in damp chamber
(§9) Recombinant human BMP-2, Catalog No.: 355-BM, Company: R&D Systems; or
(§10) Recombinant human RGM A, R&D Systems; Prod. #2495-RM,
(§11) recombinant human BMP-4, Catalog No.: 314-BM, Company: R&D Systems;
(§12) Concentration in each case: 10 μg/mL
(§13) Dilution steps: in each case 1:2 with PBS/0.02% Tween 20
(§14) 6. Washing step: • Wash 3× with PBS/0.02% Tween 20
(§15) Anti-human BMP-4 biotin antibody; Catalog No.: BAM7572, 1:200 in 1% BSA-PBS-T
(§16) 8. Washing step: • Wash 3× with PBS/0.02% Tween 20
10. Washing step: • Wash 3× with PBS/0.02% Tween 20
ImmunoPure TMB substrate kit; (Pierce, #34021) • Development period: approximately 1-30 minutes • 1:1 mixture of […]; addition: 50 μL per well
12. Stop: • 2.5 M H2SO4; addition: 50 μL per well
The test was conducted according to test method 4, variant B above, with immobilization of the fusion proteins (1 mg/mL). The binding of BMP-4 was detected using anti-BMP-4 biotin antibodies.
(§17) The test was conducted according to test method 4, variant B above, with immobilization of the fusion proteins (1 mg/mL). The binding of BMP-4 and -2 was detected using anti-BMP-4 and anti-BMP-2 biotin antibodies, respectively.

BMP-2 = molecular target: T2, BMP-2 (Homo sapiens, UniProt P12643); assay: In vitro interaction test, variant B: immobilized RGMA-Fc fusion proteins, detection of BMP-2 binding; conditions: Working Example 2, FIG. 4, anti-BMP-2 biotin antibodies
T2 construct: purchased R&D Systems 355-BM; host or cells: CHO cells (said of #355-BM in the BRE-Luc section)
T2 sequence (P12643 283-396): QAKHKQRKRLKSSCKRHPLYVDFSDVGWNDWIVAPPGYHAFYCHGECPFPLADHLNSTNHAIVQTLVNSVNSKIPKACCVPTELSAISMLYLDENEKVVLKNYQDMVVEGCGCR
Description: as §2, §3, §4, §5, §6, §7, §8, §9, §10, §11, §12, §13, §14, §15, §16
10. Washing step: • Wash 3× with PBS/0.02% Tween 20 […]
as §17

Recombinant human BMP-4 [5] = molecular target: B3; assay: ELISA, BMP-4 coated at 2.5 µg/mL, fragment #786-Fc from 0.5 µg/mL in 1:2 dilutions (triple values), detection anti-human Fc biotin 1:200 and Strep POD 1:5000
Excerpt: The binding of the fusion proteins was detected using anti-human-antibodies.

Molecule: B3
binding result (47-168-Fc (#786) [3]): binds

B4: Recombinant human BMP-2 (ligand, UniProt P12643 283-396, looked up)
chain: QAKHKQRKRLKSSCKRHPLYVDFSDVGWNDWIVAPPGYHAFYCHGECPFPLADHLNSTNHAIVQTLVNSVNSKIPKACCVPTELSAISMLYLDENEKVVLKNYQDMVVEGCGCR
notes: Bought protein; also called rhBMP-2; recombinant h BMP-2
binding result (47-168-Fc (#786) [4]): binds

B5: RGMA-Fc: RGM A Fc fusion protein used as comparison for the fragments (protein)
chain: PCKILKCNSEFWSATSGSHAPASDDTPEFCAALRSYALCTRRTARTCRGDLAYHSAVHGIEDLMSQHNCSKDGPTSQPRLRTLPPAGDSQERSDSPEICHYEKSFHKHSATPNYTHCGLFGDPHLRTFTDRFQTCKVQGAWPLIDNNYLNVQATNTPVLPGSAATATSKLTIIFKNFQECVDQKVYQAEMDELPAAFVDGSKNGGDKHGANSLKITEKVSGQHVEIQAKYIGTTIVVRQVGRYLTFAVRMPEEVVNAVEDWDSQGLYLCLRGCPLNQQIDFQAFHTNAEGTGARRLAAASPAPTAPETFPYETAVAKCKEKLPVEDLYYQACVFDLLTTGDVNFTLAAYYALEDVKMLHSNKDKLHLYERTRDLPG
modifications: left off: a dimerising Fc or GST
notes: RGM A Fc fusion protein used as comparison for the fragments
binding of BMP-4 (BMP-4; Working Example 1, FIG. 3, anti-BMP-4 biotin antibodies): Significant binding | binding of BMP-4 (BMP-4; Working Example 2, FIG. 4, anti-BMP-4 biotin antibodies): Significant binding | binding of BMP-2 (BMP-2): Significant binding

Molecule: B6
EC50 (read off the curve) (Recombinant human BMP-4 [5]): ~5 ng/mL

Next, values leading:

binding result (Recombinant human BMP-4 [1]): no binding
B1: Fragment 2 (Fc fusion)
RGM A fragment fused to Fc: IIFKNFQECVDQKVYQAEMDELPAAFVDGSKNGGDKHGANSLKITEKVSGQHVEIQAKYIGTTIVVR
notes: also called 218-284-Fc

binding result (Recombinant human BMP-4 [2]): no binding
B2: #789: 266-335 Fc 257 Stop no att (Fc fusion, human, UniProt Q96B86 266-335, looked up)
RGM A fragment fused to Fc: SGQHVEIQAKYIGTTIVVRQVGRYLTFAVRMPEEVVNAVEDWDSQGLYLCLRGCPLNQQIDFQAFHTNAE
notes: fragment; also called Fragment 3
